This is an account of results in patent US20050118674A1, “Engineering of Controlled Deamidation Rates in Peptides, Proteins, and Similar Structures” (priority 2003, published 2005).

The series in a line: First-order nonenzymatic deamidation of pentapeptides in Tris buffer. The class given is physicochemical. The following applies: 0.15 M Tris HCl; for First-Order Deamidation Halftimes of GlyXxxGlnYyyGly: pH 7.4, 37.0 ° C., Gln pentapeptides, 52 values measured, rest derived from surface fitting; for First-Order Deamidation Halftimes of GlyXxxAsnYyyGly: pH 7.4, 37.0° C., Asn pentapeptides. The protocol: One of the discoveries made was that the sequence dependence of deamidation is much richer and covers a wider range than previously thought. In 37° C., pH 7.4, 0.15 M Tris buffer, the combination of XxxAsnYyy and XxxGlnYyy sequences where Xxx and Yyy are any of the naturally occuring amino acids covers a range from less than 1 day to over 15,000 days with the entire range in between available.
It is based on pentapeptide rates measure in 37° C., pH 7.4, 0.15 M Tris buffer. The applicability of a pentapeptide model to sequence dependence was verified in a separate set of experiments. All values listed in this table are experimental except for the four values in boxes, which were estimated from the rest of the data.
It is also based on pentapeptide rates measure in 37° C., pH 7.4, 0.15 M Tris buffer. In this case, the 52 values shown in bold were measured, and the rest of the values were derived from surface fitting.
Deamidation rates are affected by a wide variety of parameters, including, pH, Temperature, Ionic Strength, and Buffer Ions. These rates are measured under pH and Temperature conditions that are applicable to biological systems. The buffer type and concentration were chosen to minimize ion affects to the extent possible given the experimental limitations. Modification of these conditions will change the rates in Tables 1 and 2. As long as the conditions are not taken to extremes (i.e. high temperature, or strongly acidic or basic conditions) the qualitative sequence dependence should remain the same and the rates reported here can be used with necessary adjustments.

With “GlyAspGlnArgGly (GDQRG; printed: GlyAspGlnArgGly)”, the “First-Order Deamidation Halftimes of GlyXxxGlnYyyGly” value is 5200 days. With “GlyAspGlnAspGly (GDQDG; printed: GlyAspGlnAspGly)”, the “First-Order Deamidation Halftimes of GlyXxxGlnYyyGly” value was 8400 days. Regarding “GlyAspGlnCysGly (GDQCG; printed: GlyAspGlnCysGly)”, the “First-Order Deamidation Halftimes of GlyXxxGlnYyyGly” value was 2100 days. With “GlyAspGlnGluGly (GDQEG; printed: GlyAspGlnGluGly)”, the “First-Order Deamidation Halftimes of GlyXxxGlnYyyGly” value was found to be 8200 days.

As for “GlyAspGlnGlyGly (GDQGG; printed: GlyAspGlnGlyGly)”, the “First-Order Deamidation Halftimes of GlyXxxGlnYyyGly” value was 800 days. With “GlyAspGlnHisGly (GDQHG; printed: GlyAspGlnHisGly)”, the “First-Order Deamidation Halftimes of GlyXxxGlnYyyGly” value worked out at 2500 days.

With “GlyAspGlnIleGly (GDQIG; printed: GlyAspGlnIleGly)”, the “First-Order Deamidation Halftimes of GlyXxxGlnYyyGly” value is 6400 days. For “GlyAspGlnLeuGly (GDQLG; printed: GlyAspGlnLeuGly)”, the “First-Order Deamidation Halftimes of GlyXxxGlnYyyGly” value came out at 6200 days.

“GlyAspGlnLysGly (GDQKG; printed: GlyAspGlnLysGly)”: the “First-Order Deamidation Halftimes of GlyXxxGlnYyyGly” value is 4600 days. Turning to “GlyAspGlnMetGly (GDQMG; printed: GlyAspGlnMetGly)”, the “First-Order Deamidation Halftimes of GlyXxxGlnYyyGly” value came out at 5200 days. Consider “GlyAspGlnPheGly (GDQFG; printed: GlyAspGlnPheGly)”, for which the “First-Order Deamidation Halftimes of GlyXxxGlnYyyGly” value came to 8500 days.

Regarding “GlyAspGlnProGly (GDQPG; printed: GlyAspGlnProGly)”, the “First-Order Deamidation Halftimes of GlyXxxGlnYyyGly” value was 11000 days. Still for that read-out and setting: for “GlyAspGlnSerGly (GDQSG; printed: GlyAspGlnSerGly)” the value was 6200 days; for “GlyAspGlnThrGly (GDQTG; printed: GlyAspGlnThrGly)”, 5400 days; for “GlyAspGlnTrpGly (GDQWG; printed: GlyAspGlnTrpGly)”, 17000 days. Take “GlyAspGlnTyrGly (GDQYG; printed: GlyAspGlnTyrGly)”: the “First-Order Deamidation Halftimes of GlyXxxGlnYyyGly” value was 13000 days. Take “GlyAspGlnValGly (GDQVG; printed: GlyAspGlnValGly)”: the “First-Order Deamidation Halftimes of GlyXxxGlnYyyGly” value is 6600 days. With “GlyCysAsnAlaGly (GCNAG; printed: GlyCysAsnAlaGly)”, the “First-Order Deamidation Halftimes of GlyXxxAsnYyyGly” value is 26.4 days. “GlyCysAsnArgGly (GCNRG; printed: GlyCysAsnArgGly)”: the “First-Order Deamidation Halftimes of GlyXxxAsnYyyGly” value was 83.1 days. For “GlyCysAsnAspGly (GCNDG; printed: GlyCysAsnAspGly)”, the “First-Order Deamidation Halftimes of GlyXxxAsnYyyGly” value is 30.6 days.

“GlyCysAsnCysGly (GCNCG; printed: GlyCysAsnCysGly)”: the “First-Order Deamidation Halftimes of GlyXxxAsnYyyGly” value is listed as 46.0 days.

On to “GlyCysAsnGluGly (GCNEG; printed: GlyCysAsnGluGly)”, for which the “First-Order Deamidation Halftimes of GlyXxxAsnYyyGly” value is 48.3 days.

For “GlyCysAsnGlyGly (GCNGG; printed: GlyCysAsnGlyGly)”, the “First-Order Deamidation Halftimes of GlyXxxAsnYyyGly” value worked out at 1.14 days. On the same count and under the same terms, to “GlyCysAsnHisGly (GCNHG; printed: GlyCysAsnHisGly)” belongs 10.8 days; to “GlyCysAsnIleGly (GCNIG; printed: GlyCysAsnIleGly)”, 304 days; to “GlyCysAsnLeuGly (GCNLG; printed: GlyCysAsnLeuGly)”, 119 days.

For “GlyCysAsnLysGly (GCNKG; printed: GlyCysAsnLysGly)”, the “First-Order Deamidation Halftimes of GlyXxxAsnYyyGly” value was determined as 46.6 days. Same read-out and setting: for “GlyCysAsnMetGly (GCNMG; printed: GlyCysAsnMetGly)” the value was 64.5 days; for “GlyCysAsnPheGly (GCNFG; printed: GlyCysAsnPheGly)”, 73.9 days; for “GlyCysAsnProGly (GCNPG; printed: GlyCysAsnProGly)”, 1550 days. As to “GlyCysAsnSerGly (GCNSG; printed: GlyCysAsnSerGly)”, the “First-Order Deamidation Halftimes of GlyXxxAsnYyyGly” value stood at 19.0 days. On to “GlyCysAsnThrGly (GCNTG; printed: GlyCysAsnThrGly)”, for which the “First-Order Deamidation Halftimes of GlyXxxAsnYyyGly” value is recorded as 48.7 days. With “GlyCysAsnTrpGly (GCNWG; printed: GlyCysAsnTrpGly)”, the “First-Order Deamidation Halftimes of GlyXxxAsnYyyGly” value stood at 111 days. “GlyCysAsnTyrGly (GCNYG; printed: GlyCysAsnTyrGly)”: the “First-Order Deamidation Halftimes of GlyXxxAsnYyyGly” value came out at 83.9 days. Regarding “GlyCysAsnValGly (GCNVG; printed: GlyCysAsnValGly)”, the “First-Order Deamidation Halftimes of GlyXxxAsnYyyGly” value came to 229 days. “GlyCysGlnAlaGly (GCQAG; printed: GlyCysGlnAlaGly)”: the “First-Order Deamidation Halftimes of GlyXxxGlnYyyGly” value turned out to be 4100 days.

As for “GlyCysGlnArgGly (GCQRG; printed: GlyCysGlnArgGly)”, the “First-Order Deamidation Halftimes of GlyXxxGlnYyyGly” value is given as 5100 days. As to “GlyCysGlnAspGly (GCQDG; printed: GlyCysGlnAspGly)”, the “First-Order Deamidation Halftimes of GlyXxxGlnYyyGly” value is given as 6100 days.

On to “GlyCysGlnCysGly (GCQCG; printed: GlyCysGlnCysGly)”, for which the “First-Order Deamidation Halftimes of GlyXxxGlnYyyGly” value amounted to 800 days. On the same count and under the same terms, to “GlyCysGlnGluGly (GCQEG; printed: GlyCysGlnGluGly)” belongs 5600 days; to “GlyCysGlnGlyGly (GCQGG; printed: GlyCysGlnGlyGly)”, 560 days; to “GlyCysGlnHisGly (GCQHG; printed: GlyCysGlnHisGly)”, 4200 days. With “GlyCysGlnIleGly (GCQIG; printed: GlyCysGlnIleGly)”, the “First-Order Deamidation Halftimes of GlyXxxGlnYyyGly” value stood at 4900 days. Consider “GlyCysGlnLeuGly (GCQLG; printed: GlyCysGlnLeuGly)”, for which the “First-Order Deamidation Halftimes of GlyXxxGlnYyyGly” value is listed as 4800 days. As for “GlyCysGlnLysGly (GCQKG; printed: GlyCysGlnLysGly)”, the “First-Order Deamidation Halftimes of GlyXxxGlnYyyGly” value is on record as 4400 days.

As to “GlyCysGlnMetGly (GCQMG; printed: GlyCysGlnMetGly)”, the “First-Order Deamidation Halftimes of GlyXxxGlnYyyGly” value was 3200 days. For the substance “GlyCysGlnPheGly (GCQFG; printed: GlyCysGlnPheGly)”, the “First-Order Deamidation Halftimes of GlyXxxGlnYyyGly” value amounted to 6500 days. On the same count and under the same terms, for “GlyCysGlnProGly (GCQPG; printed: GlyCysGlnProGly)” the value was 7100 days; for “GlyCysGlnSerGly (GCQSG; printed: GlyCysGlnSerGly)”, 3800 days; for “GlyCysGlnThrGly (GCQTG; printed: GlyCysGlnThrGly)”, 3500 days. Consider “GlyCysGlnTrpGly (GCQWG; printed: GlyCysGlnTrpGly)”, for which the “First-Order Deamidation Halftimes of GlyXxxGlnYyyGly” value is given as 9100 days. Still for that read-out and setting: for “GlyCysGlnTyrGly (GCQYG; printed: GlyCysGlnTyrGly)” the value was 7900 days. “GlyCysGlnValGly (GCQVG; printed: GlyCysGlnValGly)”: the “First-Order Deamidation Halftimes of GlyXxxGlnYyyGly” value stood at 5000 days.
